Measurements reported in the domain aggregation screens of Martell et al. (2025).

Assay: soluble fraction after stress (log2 fold change); higher = more stays soluble; pooled small domains, quantitative proteomics
Conditions: stress: pH 4
Method in brief: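 How much of each domain stays soluble after acid stress, expressed as a fold change, is used to gauge aggregation propensity. Pooled custom libraries of small domains underwent pH 4 stress before high-throughput quantitative proteomics. A higher log2 value means more of the domain stayed soluble.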

Row | Sequence | soluble fraction (log2)
1 | HMETAESLLRRLIMLEDPAMQNAMYVLAVMLERGKQLVERAAKPHESGGILRVYEHKKSGDTFVVLDPR | -1.05
2 | HMETDGGDLTPRERDVLSLIGRGLRNAEAASALGLSEHTIAGHIKSVYSKLGISTRAEAALLASRLGL | -0.261
3 | HMETGGLAQEAERELALLQEQIAHHEALYRKGTPEISDGAFDELFDRYQELADSLGVPADERIDRA | -0.836
4 | HMETIHEMVNRLSSEGFIKNEDGIWYLRDRRGDGTKWLKNPFFESTGEKDAFALIDHLKVNDELLSKLRK | -0.433
5 | HMETINERVNSIIEREGHTVATFAKKIGVPWTTIKNIVSGRNAPSYDIMVKIINAVDWVDANYLVMG | -1.16
6 | HMETKIKFQIQTLDELNIRKVADWDAKAITTVKKGQILDVVDTVAAKNGSTPMYRLESGLYITASPKYVKK | 0.22
7 | HMETKPTELMLDVHKLRIGMFVYLDLGWMDHPFPLNRFKISTNAQIEQIKGLRLKQVKVMTALSDPASLL | -0.637
8 | HMETKVIVPKVTGMNSKSAINYLSARGLKYKAVPADSGKSFHVVDQYPKSGTKVSPHSTVYLYS | 0.386
9 | HMETLKEVPNLKGQQQEVAKQLLINAGLGVGKINIIEDSTIADGEVVTQSILPNTKVKKDTYVGFTVNKAP | 0.22
10 | HMETLKLRDSGKEVQSLQELLQRQGLSAPMNGIFDEATKSSVIAFQKANGLDADGIVGYKSWETLFTAG | -0.349
11 | HMETMSGTVKWFNTQKGYGFITGDDGAEYFAHQTQIKMDGFRTLDAGDIVEFDVRSEEKGLAAVNIVP | -0.707
12 | HMETPDLTQLNPILDEYRGQKGAVIPVLQKAQKIYGFLPPEVLRRIAAGMRVPLSKIYGVATFYSQFY | -0.0265
13 | HMETQAGELQDAIRDAIAALPPRTREVFLMSRERNLRYGEIAEALGISVKAVEANMSRALRQLREKLSPFL | 0.108
14 | HMETVMYLRQIKRPQGIYLAIQESYYDSSKKQSRTRTIESIGYLDNLRKEYEDPIAFFSQKAAAMTSEKKK | -0.177
15 | HMETVQTGTVKVSNSLNVRSGAGTNYSVLGSLSNGAKVEIVGTSGSWYKIKYGSGYGYVSKDYVTVS | -0.28
16 | HMETVSFNPDIAVIPDYRHVVILGETTKTIANKYDIPVDILKAANPGLGNNVTKGDRLRVPDKTKLQ | -0.0151
17 | HMETYHIQMKGDPSKGIVGFSQLDMVIDKIKRLETEKGIAPYELEVLDGDTMEKYSGEEFLTMHE | -1.21
18 | HMETYSGVERAAILVMYLERTLAKALLDHMNDEEVRRVGMAMASIDRVEGPDIERIVGDFVRELYEVS | -0.857
19 | HMETYTVPEVLGLTPEQAAQLPEVKDIFTLDVKEEGDFSDKPVGTIVRQSPTEGEHRKGDNLVIEVWLSV | -0.269
20 | HMEVADAAQRKILQALQVQPLTVEQLSQELRTDTGDLLVSLSMMEITGLIRREAGNTFLAVFAPK | -0.598
21 | HMEVEIPSREALLGLVQKHLKPVSFDEFVSHFKLGDERQQVGIKRRLRAMERDGQLVYTKANSYGLPDRM | -0.197
22 | HMEVGVSGTVFNTDSLNVRKGPGTNFDTVTSLKRGSVVEVFEQSAVDGTVWGRIANGWVNMQYVSL | -0.0681
23 | HMEVKEVDYSAFMTMTEENSISKVEIEENQILFKKKGDDQTTYKTARMDDPALITRLHDQGVDFTGQ | 0.0244
24 | HMEVKRANRKERFLEALPYQFSRQDYLNIADKNKIPHKTAEGYITKFVDAGLIHREAHNNYTNPTKA | 0.045
25 | HMEVLPLHQVKLKYAEADTILIALKSAQSMLSPRGQLLADNRSQQIFVYDDEAHTATLIEAIKHLDQPL | -0.32

Row | Sequence | soluble fraction (log2)
26 | HMEVLTEPKVQSIDTHGEKSTFVIESPNPLQPDEIAKLVGADGISVRVDRTWLKSHRDSTWTYSILTVS | 0.163
27 | HMEVPFRNAAIFKTRSGDYAIRASYDGVDLGIKPIEKSTARTYFQLTDVKDKESFLNMTARNQYESEIAGI | 0.153
28 | HMEVPNLIGMTDKDLQRTYFQLPIEAAGDGSVVIKQLPEPGEKVKEGSVIRVLLG | 0.00722
29 | HMEVPQKTLEILEPWRGRKGFLIPVLQAVQHEFGYVPKEAIETVSREMKMPTAEIYGVVTFYAQFH | -0.513
30 | HMEVSEGEIREKVESVFSSNPRQAYNYKQISKKLNINDKSERQIVWDVLRKLAGSGKIQEVEHGRFRARAE | -0.0385
31 | HMEVSKETFPAYVAVDSLPVYKSASTSSSKVTTIDFGREVTVVETRGGWAKIQYGSYKGFAEIEGMSKN | -0.0269
32 | HMEVVELTDDEKMILATLHDGPVEIGHIKQVVGLSGKKWDAATKSLRQKGLINVVLENEQKLMVK | -0.0453
33 | HMEWGEADFVRLDEALATLRTLSPRQAEVVDLRFFSELSLEETAATLGLSLATVKRDWSVARLYLQRALS | -0.815
34 | HMEWTVEKQAAATLNAWMRKNSEMTSEKKVAVAAGIGPATVNRIMKAEVSTTIGVLSSLARAFGHEAYEMI | 0.114
35 | HMEYDEVVVVKQIIPKGKNTMVAHLKHLKEHGETGFLKQAVGYLKLHASEIPFSVDAVISEVH | -0.0529
36 | HMEYDYKVIDFFKDYYSYLNYQEIEPNILDKQLTTLTEEESAKIAGIMKLDYEDFTRGIEIVTGS | -1.41
37 | HMEYLIENYGSVINQARMKKGMTQEQLSSKTGVSQAYIRSIESQNMKPTDAVARKIEFELGIKLFE | 0.147
38 | HMEYSKSIKRLREDKNLTVEELAKRLSLDVEEIQKAEDGEDVDQKTLEAIARYFGVQYDSLVEGTAKSK | -0.258
39 | HMEYTTEELDSLLKLYFQTHESINRNEFEQLTSYTRTTASRRLKTLVQAGKLQNIGLYRFPVYKPTEGNF | -0.037
40 | HMEYYWHQLKGLEVVNTRGESLGRVRRLLETGANDVLVLEGEQERLIPYVPDTIKQVDLAKGLIEVAWDRD | -1.23
41 | HMFAADIGVGIVDADSLRVRSEPSTGAPIVTSLLRGTQVTVQEKLDGWYRITYNDVSGFVSAEYLIFTADE | -0.297
42 | HMFAGEWKQDASGWWYQNDDGSFTRNGWQNISGKQYYFNENGYMLHDTTTPDGKQVGSDGSLV | -0.389
43 | HMFAKVEGITGDILDKLQQQRGFLALSDKSSPEAIYDTFGVSKKVFKQAIGTLFKQQKISIEAEGIRLV | -0.0102
44 | HMFASSADGVEGLKTNPIFASTKEKSDAGKLLYTRYLAIGIFRMLELAKATDPKALEALVEAGG | 0.147
45 | HMFDDEELDTFAGRQSDSYDQQEVEQFSDVLHTMRQDEVQAWWRSLTLRGISLPDELKDEVIML | -1.6
46 | HMFDDLSTNLRDLAHNYIEKYSPSKQQLKVFLLKKYLMKFKGSKTKKEISEIIDKIISNLEENKYLNDEL | 0.179
47 | HMFDFMVLGQAIKKARESKEMTREQLAEILDVAPRHIQSIENEGQYPSFPLFIRLVTMFNISVDQY | -1.4
48 | HMFDGNIKIVEDAFSVTIVARGTEVKISGDPENVYLASKTVEGLLTLIDKGEAITDQRVHYVIGLVREG | -1.71
49 | HMFDGTLSIYPNPSKGIFNLDLLNVKDGEYTITVDNLLGQEVYSEIRNVINSSSKTLDLSNLTKGV | -0.433
50 | HMFDLKKIYGTILDETKSSLLLSTDDGREVQIIKTDGTEVLASGLGVYVEVAYRDETPDGYPIALTI | -0.298

Row | Sequence | soluble fraction (log2)
51 | HMFDTVKIGKRIAELRKKRDMTQFELADRLGISYQAVSNWERGNSMPDIAKLPELAEIFGVTVDEILG | 0.135
52 | HMFEARNTTFSEDGKTITETYGVKRIETEFVSDSTIVQKLYDNDVLTKTKTITFSADGLSIKEDV | -1.33
53 | HMFEDYNELDEYLETRFIPTYVLLKQRKNANGEIDHFPSIRLQHIMALKLSEAELEHVMNYLKEKNIRVG | -0.182
54 | HMFEKVKLTLTIPSKYSGSTYSALRNRMNKFSKEEWLSNGDLKIEIEVTGGQKTDIYTLINKLTNGEAIIE | -0.203
55 | HMFELDELDLVILKNLANGLSKKQIRVKLKKMDLRPNSESAIDKRVSKLFDEFGAKNSTELVAKLIREGL | -0.234
56 | HMFELTVGTPIRVIREPYFGKLGTVTELPAQLMVVESGTEVRVLKAKIEGEGEVLVPRANVEIIATG | -0.77
57 | HMFELVKISENIPIRDLAETLKTTPNEIIKELMVFGVLANINQTLNFDLASKVADKLGFEVELL | -0.363
58 | HMFEMPTSLVRTLSAIAIKQPVMQSEIIKLRGAGAYDHIKELIIRELVHRKEEGRSPILTTTKKFQEYFRL | -0.948
59 | HMFERIYVFSRDGDIIELPKGSTVLDFAYHVHTHVGNRAQAARVNKRYVPLTYQLKTGEQVEIIIS | -1.05
60 | HMFEYDEEEYEKLGPNADLTIKSMTDWGQSLVRKGVWSESDFEEFKIMGGTAQGLRALQKVRSYY | -1.25
61 | HMFFAGLSPEAARTLDSLPLHSWSSVEQIARQAGLNIETVRKELGLLELSGIALSRQGRFRRA | 0.0761
62 | HMFFFILNKGAKSGGEITHAVLNGSIVSKPAGWDAFHGLVLAKEKLSSEEIQRQMKELGVEMEIVPL | -1.18
63 | HMFGDQMQSYLSRLSQIDVDIIALKYGDNFTYREIGLILEMSEDSVRQRAVRARKKLETMIQKG | -1.29
64 | HMFGEDNLKSKEIKERVTEVAKHADDPVWIEARRKWKDENPDQNVKDYQQAYISGRIHELPWDVSYI | -0.0276
65 | HMFGEKEFYQWIGKTAGEKFSGLPAAVIKSLYKYWREYNLSEEDIMGFIRQTELLPKRTPLDVELFFEK | -1.36
66 | HMFGELTPDTAKRFLLTAREQEMASLIAQGLTNKEIAFRLGISEATVRTHIYNLFQKVGVQSRIELLNVLH | -0.162
67 | HMFGNTGETSGTGVAFTRSPVDGENKIFGEFLVNAQGEDVVAGIRTPQPISEMEQAFPEVYSKFESVAEIL | -0.305
68 | HMFHDALVSFAERRVIFMKELVNRLNEARKAYYEGESIMSDKEYDNLYDKLVKMELTTGVVLPNSPTEEVG | -0.754
69 | HMFIEHSKYKLSFKYNQLGKISNVINSNNGIIMDKHFDQNITLLAKLTENTFQEIIKHFPTIIIKRL | -0.539
70 | HMFIEPPSLEELERRLRGRGTETDDVVDMRMRTALVELSQKMEYDYRLVNDDLDEATRQLVAYVNEIAEQ | -0.679
71 | HMFIPMTDAQRHLFANKLAKLPELSEYSRGTESYEDFAIRIADMLLEPPKFRMFYPLLEQLGF | -1.19
72 | HMFIVTDQMQRVLDYITEKEKATNNDLEELLGVKSTRIYTITRKLIQHNLIIPVGKGKNKYYIL | -0.724
73 | HMFKDVTVPSVINKTEAEATNMLKGLNLVVSVEYEENANKSDGIVTAQNVNANKVIKEGETVTITVNKQP | 0.22
74 | HMFKNWMPFDEARIFVRKLKFNSHDEFRKYLKANEINIPSKPWSTYKGKGWVSIGDFLGTHR | -0.308
75 | HMFLPGETFDVKIVKIGEGENQGVGYLDDGTMIVIENGRDHLNELARVIVTRVLQNSAGQMIFSDYEE | -1.76
